{"source": "patent US20170240629A1", "about": "(Hoffmann-La Roche, published 2017)", "binders": {"B1": {"name": "PDGF-B-mumAb (antibody, V domains shown)", "VH": "QVQLQQSGAELMKPGASVKISCKATGYTFSSYWIEWVKQRPGHGLEWIGEILPGSGSTNYNEKFKVKATFTADTSSNTAYMQLSSLTSEDSAVYYCAQTTQDFDSWGQGTTLTVSS", "VL": "DIVLTQSPGSLAVSLGQRATISCRASESVDIYGYSFMHWYQQKPGQPPKLLIYRASNLESGIPARFSGSGSRTDFTLTINPVEADDVATYYCQQSNEDPRTFGGGTKLEIK", "notes": "Murine antibody; also called murine anti-human PDGF-B antibody"}, "B2": {"name": "PDGF-B-mumAb Fab (Fab, V domains shown)", "VH": "QVQLQQSGAELMKPGASVKISCKATGYTFSSYWIEWVKQRPGHGLEWIGEILPGSGSTNYNEKFKVKATFTADTSSNTAYMQLSSLTSEDSAVYYCAQTTQDFDSWGQGTTLTVSS", "VL": "DIVLTQSPGSLAVSLGQRATISCRASESVDIYGYSFMHWYQQKPGQPPKLLIYRASNLESGIPARFSGSGSRTDFTLTINPVEADDVATYYCQQSNEDPRTFGGGTKLEIK", "notes": "Fab fragment of PDGF-B-mumAb"}, "B3": {"name": "antibody 0031 (bispecific antibody, V domains shown)", "VH 1": "QVQLVQSGAEVKKPGASVKVSCKASGYTFTGYYMHWVRQAPGQGLEWIGYISSYNAFTTYNQKFRGRATFTVDTSISTAYMELSRLRSDDTAVYYCVRSDYYGTSLYWGQGTLVTVSS", "VL 1": "EIVLTQSPATLSLSPGERATLSCRASSSVSYMHWSQQKPGQAPRLLIYSTSNLASGIPARFSGSGSGTDFTLTISSLEPEDFAVYYCHQWSNYYTFGQGTKLEIK", "VH 2": "not shown", "VL 2": "SYVLTQPPSVSVAPGQTARITCGGNNIGSKSVHWYQQKPGQAPVLVVYDTSDRPSGIPERFSGSNSGNTATLTISRVEAGDEADYYCQVWDSSSDHWVFGGGTKLTVLSS", "notes": "CrossMab; also called anti-IL-1beta/ANG2 antibody; bispecific anti-ANG2/IL-1beta antibody"}}, "key": {"human PDGF-AA": {"biological_target": "T1, human PDGF-AA (human, UniProt P04085 87-211, limits assumed)", "T1 construct": "also called huPDGF-AA", "assay": "ELISA, antigen coated"}, "rat PDGF-BB": {"biological_target": "rat PDGF-BB (rat, UniProt Q05028 74-182)", "sequence (Q05028 74-182 limits assumed)": "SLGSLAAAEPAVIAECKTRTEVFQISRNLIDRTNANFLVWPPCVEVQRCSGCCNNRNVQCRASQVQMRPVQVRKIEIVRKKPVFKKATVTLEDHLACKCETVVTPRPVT", "assay": "ELISA, antigen coated"}, "murine PDGF-BB": {"biological_target": "T2, murine PDGF-BB (murine, UniProt P31240 82-190)", "T2 construct": "also called muPDGF-BB", "T2 sequence (P31240 82-190 limits assumed)": "as the sequence (Q05028 74-182 limits assumed) above, with V83I, V102I counted along it", "assay": "ELISA, antigen coated"}, "human PDGF-BB [1]": {"biological_target": "T3, human PDGF-BB (human, UniProt P01127 82-190)", "T3 construct": "also called huPDGF-BB", "T3 sequence (P01127 82-190 limits assumed)": "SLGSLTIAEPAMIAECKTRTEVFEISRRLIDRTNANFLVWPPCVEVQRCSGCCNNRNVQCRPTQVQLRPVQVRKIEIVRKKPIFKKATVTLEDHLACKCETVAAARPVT", "assay": "ELISA, antigen coated"}, "human PDGF-BB [2]": {"biological_target": "T3, human PDGF-BB", "assay": "competition ELISA; biotinylated human PDGF-BB with antibody on coated Fc-tagged PDGF-BB receptor (competitor)", "protocol": "The IC₅₀ was calculated with a four parameter logistic model using GraphPad Prism 6.0 software."}, "human PDGF-BB [3]": {"biological_target": "T3, human PDGF-BB", "assay": "SPR (BIAcore T200) kinetic screening; PDGF-BB coupled on C1 chip, antibody injected"}, "human PDGF-BB [4]": {"biological_target": "T3, human PDGF-BB", "assay": "SPR; apparent KD** of the whole antibody"}, "human PDGF-BB [5]": {"biological_target": "T3, human PDGF-BB", "assay": "cell-based or functional assay"}, "human PDGF-BB [6]": {"biological_target": "T3, human PDGF-BB", "assay": "cell-based or functional assay", "remark": "listed apart in the source"}, "human PDGF-BB [7]": {"biological_target": "T3, human PDGF-BB", "assay": "SPR; whole antibody"}, "human PDGF-BB [8]": {"biological_target": "T3, human PDGF-BB", "assay": "SPR (BIAcore T200); PDGF-BB coupled on CM3 chip, Fab injected"}, "human PDGF-BB [9]": {"biological_target": "T3, human PDGF-BB", "assay": "SPR; Fab"}, "human PDGF-BB [10]": {"biological_target": "T3, human PDGF-BB", "assay": "SPR; apparent KD of the Fab"}, "ANG2": {"biological_target": "T4, ANG2 (UniProt O15123 68-496, limits assumed)", "T4 sequence (looked up)": "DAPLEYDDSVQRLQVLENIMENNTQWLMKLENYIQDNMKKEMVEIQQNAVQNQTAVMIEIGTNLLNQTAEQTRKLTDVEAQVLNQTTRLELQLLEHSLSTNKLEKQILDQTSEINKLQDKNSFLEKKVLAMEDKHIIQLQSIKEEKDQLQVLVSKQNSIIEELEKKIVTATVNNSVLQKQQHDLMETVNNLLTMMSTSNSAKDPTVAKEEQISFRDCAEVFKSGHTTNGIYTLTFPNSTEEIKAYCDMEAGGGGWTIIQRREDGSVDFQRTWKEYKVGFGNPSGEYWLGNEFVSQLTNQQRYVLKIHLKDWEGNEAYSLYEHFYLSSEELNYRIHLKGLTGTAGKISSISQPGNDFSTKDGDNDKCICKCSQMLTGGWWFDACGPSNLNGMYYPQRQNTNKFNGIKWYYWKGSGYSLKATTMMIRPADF", "assay": "cell-based or functional assay"}, "[11]": {"biological_target": "T5, human ANG2-RBD-mouse Fc-region fusion (human, UniProt O15123 275-496, limits assumed)", "T5 construct": "domain: RBD; also called human ANG2-RBD-murine Fc-region fusion; not shown: mouse Fc-region", "T5 sequence (looked up)": "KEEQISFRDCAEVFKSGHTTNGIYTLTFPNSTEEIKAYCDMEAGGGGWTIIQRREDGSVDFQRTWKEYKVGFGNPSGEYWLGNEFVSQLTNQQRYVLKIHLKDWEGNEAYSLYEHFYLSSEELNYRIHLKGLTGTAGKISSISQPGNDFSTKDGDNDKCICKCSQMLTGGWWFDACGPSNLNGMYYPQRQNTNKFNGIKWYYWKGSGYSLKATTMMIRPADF", "assay": "SPR (BIAcore T200); ANG2-RBD-mouse Fc captured, antibody injected (Example 52)"}, "human IL-1beta [12]": {"biological_target": "T6, human IL-1beta (human, UniProt P01584 117-269)", "assay": "cell-based or functional assay"}, "human IL-1beta [13]": {"biological_target": "T6, human IL-1beta", "assay": "SPR (BIAcore T200); antibody captured by anti-human Fc, human IL-1beta injected (Example 52)", "design": "t 1/2: unit not given here"}, "human IL-1beta [14]": {"biological_target": "T6, human IL-1beta", "assay": "cell-based or functional assay", "remark": "listed apart in the source"}}, "note": "Like-named read-outs stand apart in the source and are kept apart here.", "data": [{"binder": "B1", "values": [{"measurement": "EC50", "setting": "human PDGF-AA", "result": 0.00204, "unit": "µg/mL"}, {"measurement": "EC50", "setting": "rat PDGF-BB", "result": 0.00512, "unit": "µg/mL"}, {"measurement": "EC50", "setting": "murine PDGF-BB", "result": 0.0088, "unit": "µg/mL"}, {"measurement": "EC50", "setting": "human PDGF-BB [1]", "result": 0.0163, "unit": "µg/mL"}, {"measurement": "IC50", "setting": "human PDGF-BB [2]", "result": 0.0122, "unit": "µg/mL"}, {"measurement": "koff", "setting": "human PDGF-BB [3]", "result": 0.00045, "unit": "s⁻¹"}, {"measurement": "t½", "setting": "human PDGF-BB [3]", "result": 26, "unit": "min"}, {"measurement": "Kd", "setting": "human PDGF-BB [4]", "result": 0.042, "unit": "nM"}, {"measurement": "IC50 Phospho-Inhibition", "setting": "human PDGF-BB [5]", "result": 0.0017, "unit": "µg/mL"}, {"measurement": "IC50 Proliferation 3T3", "setting": "human PDGF-BB [5]", "result": 0.0551, "unit": "µg/mL"}, {"measurement": "IC50 Phospho-Inhibition", "setting": "human PDGF-BB [6]", "result": 0.0017, "unit": "µg/mL"}, {"measurement": "IC50 Proliferation 3T3", "setting": "human PDGF-BB [6]", "result": 0.0551, "unit": "µg/mL"}, {"measurement": "T½", "setting": "human PDGF-BB [7]", "result": 47.8, "unit": "min"}]}, {"binder": "B2", "values": [{"measurement": "Kd", "setting": "human PDGF-BB [8]", "result": 5, "unit": "nM"}, {"measurement": "koff", "setting": "human PDGF-BB [8]", "result": 0.00201, "unit": "s⁻¹"}, {"measurement": "kon", "setting": "human PDGF-BB [8]", "result": 439000, "unit": "M⁻¹ s⁻¹"}, {"measurement": "t½", "setting": "human PDGF-BB [8]", "result": 5.75, "unit": "min"}, {"measurement": "T½", "setting": "human PDGF-BB [9]", "result": 5.75, "unit": "min"}, {"measurement": "Kd", "setting": "human PDGF-BB [10]", "result": 5, "unit": "nM"}]}, {"binder": "B3", "values": [{"measurement": "ANG2 specific pTie2-ELISA, activity against the anti-ANG2/VEGF antibody reported in WO 2014/09465", "setting": "ANG2", "result": 6, "unit": "fold"}, {"measurement": "Kd", "setting": "[11]", "result": 8, "unit": "nM"}, {"measurement": "koff", "setting": "[11]", "result": 0.00115, "unit": "s⁻¹"}, {"measurement": "kon", "setting": "[11]", "result": 145000, "unit": "M⁻¹ s⁻¹"}, {"measurement": "t½", "setting": "[11]", "result": 10.1, "unit": "min"}, {"measurement": "EC50, reduction of IL-6 expression upon IL-1beta stimulation of A549 cells", "setting": "human IL-1beta [12]", "result": 0.017, "unit": "µg/mL"}, {"measurement": "Kd", "setting": "human IL-1beta [13]", "result": 0.12, "unit": "nM"}, {"measurement": "koff", "setting": "human IL-1beta [13]", "result": 0.000302, "unit": "s⁻¹"}, {"measurement": "kon", "setting": "human IL-1beta [13]", "result": "2.56e+06", "unit": "M⁻¹ s⁻¹"}, {"measurement": "t 1/2", "setting": "human IL-1beta [13]", "result": 38}, {"measurement": "IC50, inhibition of ICAM-1 expression upon IL-1beta stimulation of A549 cells", "setting": "human IL-1beta [14]", "result": 0.104, "unit": "µg/mL"}]}]}
